The target of the first assay is soluble human C3b (human) (UniProt P01024). As to the kind of experiment: cell-based or functional assay.
soluble human C3b (human), sequence (P01024 23-1663 limits assumed): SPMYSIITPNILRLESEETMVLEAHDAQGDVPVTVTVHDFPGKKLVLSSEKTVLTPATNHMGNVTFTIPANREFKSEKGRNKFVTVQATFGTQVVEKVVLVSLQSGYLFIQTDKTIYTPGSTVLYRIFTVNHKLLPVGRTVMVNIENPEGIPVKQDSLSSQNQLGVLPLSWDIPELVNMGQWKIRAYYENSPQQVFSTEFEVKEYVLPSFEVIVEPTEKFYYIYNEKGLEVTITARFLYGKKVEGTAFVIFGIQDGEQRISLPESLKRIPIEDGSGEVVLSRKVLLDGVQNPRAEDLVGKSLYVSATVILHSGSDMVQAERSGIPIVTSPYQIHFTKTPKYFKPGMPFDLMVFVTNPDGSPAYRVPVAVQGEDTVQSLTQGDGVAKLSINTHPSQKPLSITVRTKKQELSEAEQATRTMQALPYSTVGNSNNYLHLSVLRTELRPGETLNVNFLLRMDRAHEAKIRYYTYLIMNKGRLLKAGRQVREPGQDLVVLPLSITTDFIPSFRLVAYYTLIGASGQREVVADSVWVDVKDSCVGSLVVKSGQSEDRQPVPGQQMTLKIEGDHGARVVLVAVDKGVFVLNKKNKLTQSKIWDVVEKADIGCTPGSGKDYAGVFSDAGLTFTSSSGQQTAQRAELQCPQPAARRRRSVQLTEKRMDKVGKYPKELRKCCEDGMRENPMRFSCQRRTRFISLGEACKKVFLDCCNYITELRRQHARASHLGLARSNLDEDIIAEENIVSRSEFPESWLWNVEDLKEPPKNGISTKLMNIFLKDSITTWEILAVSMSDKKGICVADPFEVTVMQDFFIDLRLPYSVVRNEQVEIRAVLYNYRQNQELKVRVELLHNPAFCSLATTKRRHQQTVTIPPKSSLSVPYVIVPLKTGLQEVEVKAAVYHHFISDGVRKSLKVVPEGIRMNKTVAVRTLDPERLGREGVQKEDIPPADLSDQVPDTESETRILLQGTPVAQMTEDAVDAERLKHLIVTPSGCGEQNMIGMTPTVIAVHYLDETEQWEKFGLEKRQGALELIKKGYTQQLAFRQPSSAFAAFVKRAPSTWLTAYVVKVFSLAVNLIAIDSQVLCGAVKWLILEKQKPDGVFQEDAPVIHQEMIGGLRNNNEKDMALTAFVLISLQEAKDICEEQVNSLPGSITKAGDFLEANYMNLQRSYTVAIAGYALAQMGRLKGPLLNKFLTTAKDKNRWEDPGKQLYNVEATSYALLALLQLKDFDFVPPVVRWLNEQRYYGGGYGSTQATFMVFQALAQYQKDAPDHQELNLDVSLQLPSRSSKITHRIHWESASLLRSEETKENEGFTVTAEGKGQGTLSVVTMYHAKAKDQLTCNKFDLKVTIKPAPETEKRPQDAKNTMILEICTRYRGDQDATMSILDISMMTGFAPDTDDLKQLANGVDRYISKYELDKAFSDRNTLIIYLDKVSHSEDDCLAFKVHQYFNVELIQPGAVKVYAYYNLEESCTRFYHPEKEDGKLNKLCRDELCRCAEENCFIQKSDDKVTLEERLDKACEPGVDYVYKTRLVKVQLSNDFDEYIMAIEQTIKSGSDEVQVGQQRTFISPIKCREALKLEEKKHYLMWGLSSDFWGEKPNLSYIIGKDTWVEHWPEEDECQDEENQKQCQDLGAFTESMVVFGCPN
Const. No. 66: HSA-GGSSGG-hCFI-GGSSGG-hCR1; CCP8; CCP9; CCP10-(SEQ ID NO: 33)-hFH; CCP19; CCP20, sequence (P17927 other isoform, or with tags, fused parts or gaps limits assumed): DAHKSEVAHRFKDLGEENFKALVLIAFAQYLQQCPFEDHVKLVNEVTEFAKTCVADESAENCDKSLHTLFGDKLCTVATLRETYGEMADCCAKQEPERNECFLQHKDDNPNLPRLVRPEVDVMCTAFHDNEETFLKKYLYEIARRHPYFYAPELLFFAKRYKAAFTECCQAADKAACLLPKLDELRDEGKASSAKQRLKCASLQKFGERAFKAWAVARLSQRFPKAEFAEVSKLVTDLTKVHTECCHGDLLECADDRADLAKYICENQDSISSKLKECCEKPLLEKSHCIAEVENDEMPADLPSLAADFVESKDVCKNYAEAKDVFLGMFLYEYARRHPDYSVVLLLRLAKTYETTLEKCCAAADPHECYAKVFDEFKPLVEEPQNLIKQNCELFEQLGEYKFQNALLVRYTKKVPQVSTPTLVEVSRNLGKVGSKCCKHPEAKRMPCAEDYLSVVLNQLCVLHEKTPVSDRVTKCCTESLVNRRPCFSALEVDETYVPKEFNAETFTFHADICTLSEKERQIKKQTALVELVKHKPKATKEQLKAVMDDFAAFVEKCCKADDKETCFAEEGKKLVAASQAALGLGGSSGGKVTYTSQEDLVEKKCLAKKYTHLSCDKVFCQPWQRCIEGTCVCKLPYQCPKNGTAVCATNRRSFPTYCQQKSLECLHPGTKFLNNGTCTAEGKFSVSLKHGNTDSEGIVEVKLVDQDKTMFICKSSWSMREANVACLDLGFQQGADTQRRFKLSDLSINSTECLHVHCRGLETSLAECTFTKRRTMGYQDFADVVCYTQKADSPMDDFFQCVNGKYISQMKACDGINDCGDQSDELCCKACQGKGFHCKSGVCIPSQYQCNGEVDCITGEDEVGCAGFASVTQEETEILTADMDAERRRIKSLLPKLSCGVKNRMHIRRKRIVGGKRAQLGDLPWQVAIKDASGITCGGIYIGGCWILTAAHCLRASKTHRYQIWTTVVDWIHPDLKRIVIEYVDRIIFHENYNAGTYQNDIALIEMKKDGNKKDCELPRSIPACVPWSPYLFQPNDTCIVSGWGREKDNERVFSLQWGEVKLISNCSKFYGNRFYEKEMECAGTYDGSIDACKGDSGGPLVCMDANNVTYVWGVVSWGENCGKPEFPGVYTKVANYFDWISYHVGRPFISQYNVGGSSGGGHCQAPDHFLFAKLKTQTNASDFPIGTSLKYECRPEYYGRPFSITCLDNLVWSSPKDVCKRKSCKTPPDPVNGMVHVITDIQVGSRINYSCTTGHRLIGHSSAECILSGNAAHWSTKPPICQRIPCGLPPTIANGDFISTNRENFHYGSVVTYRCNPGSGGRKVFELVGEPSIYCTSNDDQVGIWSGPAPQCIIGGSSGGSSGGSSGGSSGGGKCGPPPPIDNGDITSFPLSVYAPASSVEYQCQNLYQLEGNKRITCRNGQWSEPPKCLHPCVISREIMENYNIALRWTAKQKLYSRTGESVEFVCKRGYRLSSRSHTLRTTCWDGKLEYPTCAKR
As for “Const. No. 91: HSA-GGSSGG-hCFI; T377A; E457G; N531G (enzyme)”, the iC3b EC50 was determined as 6.69 nM.

As for “Const. No. 35: HSA-GGSSGG-hCFI; R371E (enzyme)”, the iC3b EC50 was determined as 347 nM.

In turn, “Const. No. 58: HSA-GGSSGG-hCFI; D395A; E416A; D425A (enzyme)” had an iC3b EC50 of 8.15 nM.

In turn, “Const. No. 26: HSA-GGSSGG-hCFI; E401K (enzyme)” registered an iC3b EC50 of 6.39 nM.

With “Const. No. 14: HSA-GGSSGG-hCFI; S499A (enzyme)”, the iC3b EC50 was determined as 40.9 nM.

Substance “Const. No. 59: HSA-GGSSGG-hCFI; N402D (enzyme)” registered an iC3b EC50 of 24.9 nM.

In the case of “Const. No. 40: HSA-GGSSGG-hCFI; T59E (enzyme)”, the iC3b EC50 turned out to be 43.1 nM.

“Const. No. 47: HSA-GGSSGG-hCFI; R484E (enzyme)” gave an iC3b EC50 of 154 nM.

Consider “Const. No. 92: HSA-GGSSGG-hCFI; N422A (enzyme)”, for which the iC3b EC50 amounted to 46.3 nM.

For “Const. No. 50: HSA-GGSSGG-hCFI; E416K (enzyme)”, the iC3b EC50 is 12.8 nM.

Turning to “Const. No. 55: HSA-GGSSGG-hCFI; D395R (enzyme)”, the iC3b EC50 was determined as 12.4 nM.

Take “Const. No. 42: HSA-GGSSGG-hCFI; L73D (enzyme)”: the iC3b EC50 is 168 nM.

“Const. No. 3: HSA-GGSSGG-hCFI; L307F (enzyme)” gave an iC3b EC50 of 18.9 nM.

For “Const. No. 49: HSA-GGSSGG-hCFI; Δ(V565) > VY (enzyme)”, the iC3b EC50 is 89.2 nM.

“Const. No. 23: HSA-GGSSGG-hCFI; R62E (enzyme)” registered an iC3b EC50 of 156 nM.

Const. No. 73: HSA-…-Chimp CFI (enzyme) registered an iC3b EC50 of 54.6 nM.

“Const. No. 2: HSA-GGSSGG-hCFI; F559H (enzyme)” gave an iC3b EC50 of 28.6 nM.

“Const. No. 95: HSA linked with CFI (CFI-HSA), wild type (enzyme)” displayed an iC3b EC50 of 28.6 nM.

In the case of “Const. No. 45: HSA-GGSSGG-hCFI; R484A (enzyme)”, the iC3b EC50 is 61.1 nM.

The substance “Const. No. 7: HSA-GGSSGG-hCFI; P433A (enzyme)” yielded an iC3b EC50 of 15.8 nM.

Substance “Const. No. 21: HSA-GGSSGG-hCFI; K423R (enzyme)” yielded an iC3b EC50 of 30.5 nM.

The substance “Const. No. 29: HSA-GGSSGG-hCFI; E401F (enzyme)” registered an iC3b EC50 of 10.6 nM.

For the substance “Const. No. 27: HSA-GGSSGG-hCFI; E401R (enzyme)”, the iC3b EC50 was 6.26 nM.

For the substance “Const. No. 74: HSA-…-Bovine CFI (enzyme)”, the iC3b EC50 turned out to be 5.79 nM.

For the substance “Const. No. 51: HSA-GGSSGG-hCFI; E416R (enzyme)”, the iC3b EC50 is 12.5 nM.

Regarding “Const. No. 33: HSA-GGSSGG-hCFI; H554F (enzyme)”, the iC3b EC50 was found to be 16.4 nM.

As to “Const. No. 72: HSA-…-Cyno CFI (from UniProt A0A650AXN4 19-583) (enzyme)”, the iC3b EC50 was determined as 3.12 nM.

As to “Const. No. 53: HSA-GGSSGG-hCFI; D395G (enzyme)”, the iC3b EC50 stood at 20.7 nM.

As for “Const. No. 56: HSA-GGSSGG-hCFI; D395A; D425A (enzyme)”, the iC3b EC50 was determined as 9.67 nM.

For “Const. No. 54: HSA-GGSSGG-hCFI; D395K (enzyme)”, the iC3b EC50 is 7.38 nM.

“Const. No. 6: HSA-GGSSGG-hCFI; L307Y (enzyme)” displayed an iC3b EC50 of 34.7 nM.

For the substance “Const. No. 15: HSA-GGSSGG-hCFI; S499K (enzyme)”, the iC3b EC50 is 35.1 nM.

With “Const. No. 52: HSA-GGSSGG-hCFI; D395A (enzyme)”, the iC3b EC50 stood at 22.5 nM.

“Const. No. 41: HSA-GGSSGG-hCFI; L73F (enzyme)” had an iC3b EC50 of 31.4 nM.

Substance “Const. No. 5: HSA-GGSSGG-hCFI; L307W (enzyme)” displayed an iC3b EC50 of 24.8 nM.

For the substance “Const. No. 60: HSA-GGSSGG-hCFI; K368D (enzyme)”, the iC3b EC50 turned out to be 156 nM.

The substance “Const. No. 66: HSA-GGSSGG-hCFI-GGSSGG-hCR1; CCP8; CCP9; CCP10-(SEQ ID NO: 33)-hFH; CCP19; CCP20 (from UniProt P17927 491-684; P08603 1107-1231) (enzyme)” displayed an iC3b EC50 of 3.17 nM, an iC3b no cofactor EC50 of 2.92 nM and an iC3b with cofactor EC50 of 3.2 nM.

“Const. No. 48: HSA-GGSSGG-hCFI; Δ(V565) > VG (enzyme)” yielded an iC3b EC50 of 1000 nM.

Turning to “Const. No. 38: HSA-GGSSGG-hCFI; N52A (enzyme)”, the iC3b EC50 came out at 39.8 nM.

As to “Const. No. 39: HSA-GGSSGG-hCFI; A55P (enzyme)”, the iC3b EC50 was 31.4 nM.

“Const. No. 22: HSA-GGSSGG-hCFI; R62A (enzyme)” displayed an iC3b EC50 of 102 nM.

The substance “Const. No. 36: HSA-GGSSGG-hCFI; A342R (enzyme)” yielded an iC3b EC50 of 13.1 nM.

“Const. No. 37: HSA-GGSSGG-hCFI; K51R; N52A; A55P; T59M; R61G; F64Y (enzyme)” showed an iC3b EC50 of 20.3 nM.

For the substance “Const. No. 57: HSA-GGSSGG-hCFI; D395A; E416A (enzyme)”, the iC3b EC50 was 17.5 nM.

In turn, “Const. No. 16: HSA-GGSSGG-hCFI; S499V (enzyme)” had an iC3b EC50 of 85.6 nM.

Regarding “Const. No. 34: HSA-GGSSGG-hCFI; H554K (enzyme)”, the iC3b EC50 turned out to be 8.7 nM.

“Const. No. 70: HSA-…-Rat CFI (from UniProt Q9WUW3 19-604) (enzyme)” came in with an iC3b EC50 of 17.5 nM.

With “Const. No. 28: HSA-GGSSGG-hCFI; E401A (enzyme)”, the iC3b EC50 amounted to 11.8 nM.

“Const. No. 4: HSA-GGSSGG-hCFI; L307H (enzyme)” had an iC3b EC50 of 21.4 nM.

On to “Const. No. 71: HSA-…-Gorilla CFI (enzyme)”, for which the iC3b EC50 turned out to be 32.7 nM.

The target in the next assay is human C4b (human) (UniProt P0C0L5). As to the kind of experiment: cell-based or functional assay.
human C4b (human), sequence (P0C0L5 20-1744): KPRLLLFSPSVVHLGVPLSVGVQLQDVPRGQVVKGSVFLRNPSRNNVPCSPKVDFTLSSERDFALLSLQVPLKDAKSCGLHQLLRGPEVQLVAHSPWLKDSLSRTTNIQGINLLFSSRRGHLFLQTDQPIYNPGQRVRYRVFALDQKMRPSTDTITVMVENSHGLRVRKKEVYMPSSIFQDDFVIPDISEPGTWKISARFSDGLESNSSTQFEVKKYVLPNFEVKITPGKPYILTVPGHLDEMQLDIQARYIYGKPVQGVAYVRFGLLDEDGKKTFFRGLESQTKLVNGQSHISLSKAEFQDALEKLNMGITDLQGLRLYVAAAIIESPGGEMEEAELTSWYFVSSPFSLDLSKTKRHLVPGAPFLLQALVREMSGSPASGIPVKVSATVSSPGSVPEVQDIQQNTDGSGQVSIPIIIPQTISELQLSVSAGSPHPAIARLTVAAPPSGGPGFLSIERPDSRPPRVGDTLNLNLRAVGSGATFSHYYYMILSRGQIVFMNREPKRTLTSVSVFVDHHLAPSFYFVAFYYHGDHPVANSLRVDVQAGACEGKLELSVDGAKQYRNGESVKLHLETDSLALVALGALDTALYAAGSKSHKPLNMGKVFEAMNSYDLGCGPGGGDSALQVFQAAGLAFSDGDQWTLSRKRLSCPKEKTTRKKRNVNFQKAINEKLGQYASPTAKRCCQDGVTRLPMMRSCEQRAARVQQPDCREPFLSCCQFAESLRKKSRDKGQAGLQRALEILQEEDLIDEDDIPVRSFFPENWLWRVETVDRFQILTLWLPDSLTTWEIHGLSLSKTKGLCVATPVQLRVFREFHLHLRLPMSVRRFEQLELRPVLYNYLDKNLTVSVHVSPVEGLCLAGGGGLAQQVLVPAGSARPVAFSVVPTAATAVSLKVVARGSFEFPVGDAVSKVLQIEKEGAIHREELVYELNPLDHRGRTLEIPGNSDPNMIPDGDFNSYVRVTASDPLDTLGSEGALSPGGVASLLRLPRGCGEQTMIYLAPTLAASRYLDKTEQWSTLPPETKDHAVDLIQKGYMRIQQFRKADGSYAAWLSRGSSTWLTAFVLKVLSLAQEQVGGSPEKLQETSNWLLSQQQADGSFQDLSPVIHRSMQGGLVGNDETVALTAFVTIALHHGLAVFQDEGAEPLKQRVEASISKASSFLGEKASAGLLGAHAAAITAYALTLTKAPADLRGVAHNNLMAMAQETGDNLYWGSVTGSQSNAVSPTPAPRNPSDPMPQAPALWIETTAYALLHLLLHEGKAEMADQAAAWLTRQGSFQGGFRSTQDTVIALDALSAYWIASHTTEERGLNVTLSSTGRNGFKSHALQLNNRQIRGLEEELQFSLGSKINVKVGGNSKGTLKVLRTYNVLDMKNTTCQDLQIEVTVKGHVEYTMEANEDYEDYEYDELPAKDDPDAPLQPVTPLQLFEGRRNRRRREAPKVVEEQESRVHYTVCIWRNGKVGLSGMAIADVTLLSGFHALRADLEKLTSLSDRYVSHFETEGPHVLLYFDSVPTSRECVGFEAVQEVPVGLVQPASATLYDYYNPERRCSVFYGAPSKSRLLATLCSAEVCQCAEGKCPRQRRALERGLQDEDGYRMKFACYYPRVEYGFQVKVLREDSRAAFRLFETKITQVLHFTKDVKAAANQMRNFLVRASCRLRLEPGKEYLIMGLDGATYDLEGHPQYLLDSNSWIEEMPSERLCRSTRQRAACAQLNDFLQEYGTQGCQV
For Const. No. 73: HSA-…-Chimp CFI (enzyme), the C4c EC50 was 1610 nM.

Consider “Const. No. 74: HSA-…-Bovine CFI (enzyme)”, for which the C4c EC50 turned out to be 47.1 nM.

“Const. No. 71: HSA-…-Gorilla CFI (enzyme)” returned a C4c EC50 of 679 nM.

These data come from patent US20250011379A1.
